In patent US20250270343A1 (Alector, published 2025):

T1: mouse GPNMB endogenously expressed on B16F10 cells (mouse, UniProt Q99P91 23-574)
T1 construct: whole, on cells; also called moGPNMB
T1 sequence (looked up): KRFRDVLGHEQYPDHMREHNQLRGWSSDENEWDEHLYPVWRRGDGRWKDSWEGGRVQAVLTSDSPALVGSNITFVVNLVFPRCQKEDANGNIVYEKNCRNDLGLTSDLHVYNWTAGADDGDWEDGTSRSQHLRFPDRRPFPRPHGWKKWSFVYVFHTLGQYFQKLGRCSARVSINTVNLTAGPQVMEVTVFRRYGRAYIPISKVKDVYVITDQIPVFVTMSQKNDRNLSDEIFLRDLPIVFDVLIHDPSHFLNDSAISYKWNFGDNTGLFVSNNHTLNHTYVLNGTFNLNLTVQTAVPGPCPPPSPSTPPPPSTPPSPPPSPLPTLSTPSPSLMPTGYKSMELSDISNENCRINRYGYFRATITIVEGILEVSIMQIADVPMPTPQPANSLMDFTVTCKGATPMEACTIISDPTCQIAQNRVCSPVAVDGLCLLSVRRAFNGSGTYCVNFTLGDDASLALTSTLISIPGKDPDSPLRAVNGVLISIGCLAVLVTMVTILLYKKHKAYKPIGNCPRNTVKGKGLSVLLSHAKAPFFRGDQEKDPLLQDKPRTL

T2: soluble cynomolgus GPNMB (recombinant extracellular domain) (cynomolgus, UniProt Q14956 23-499 (human entry), limits assumed)
T2 chain: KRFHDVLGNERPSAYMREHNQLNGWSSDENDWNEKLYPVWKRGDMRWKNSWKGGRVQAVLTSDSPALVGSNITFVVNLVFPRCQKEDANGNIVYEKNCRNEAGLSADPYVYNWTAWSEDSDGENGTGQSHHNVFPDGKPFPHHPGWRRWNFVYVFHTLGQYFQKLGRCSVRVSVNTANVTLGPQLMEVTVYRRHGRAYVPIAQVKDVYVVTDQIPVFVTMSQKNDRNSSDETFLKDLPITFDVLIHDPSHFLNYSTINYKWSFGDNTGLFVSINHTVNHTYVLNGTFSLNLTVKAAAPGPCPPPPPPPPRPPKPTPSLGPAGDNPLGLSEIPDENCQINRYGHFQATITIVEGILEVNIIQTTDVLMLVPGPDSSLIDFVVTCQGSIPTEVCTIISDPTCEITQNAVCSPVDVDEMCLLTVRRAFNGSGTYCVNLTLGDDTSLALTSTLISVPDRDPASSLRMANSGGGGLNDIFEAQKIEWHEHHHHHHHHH

T3: soluble human GPNMB (recombinant extracellular domain) (human, UniProt Q14956 23-498)
T3 construct: also called huGPNMB; recombinant human GPNMB extracellular domain; not shown: C-terminal polyhistidine or Avi-His tag
T3 sequence: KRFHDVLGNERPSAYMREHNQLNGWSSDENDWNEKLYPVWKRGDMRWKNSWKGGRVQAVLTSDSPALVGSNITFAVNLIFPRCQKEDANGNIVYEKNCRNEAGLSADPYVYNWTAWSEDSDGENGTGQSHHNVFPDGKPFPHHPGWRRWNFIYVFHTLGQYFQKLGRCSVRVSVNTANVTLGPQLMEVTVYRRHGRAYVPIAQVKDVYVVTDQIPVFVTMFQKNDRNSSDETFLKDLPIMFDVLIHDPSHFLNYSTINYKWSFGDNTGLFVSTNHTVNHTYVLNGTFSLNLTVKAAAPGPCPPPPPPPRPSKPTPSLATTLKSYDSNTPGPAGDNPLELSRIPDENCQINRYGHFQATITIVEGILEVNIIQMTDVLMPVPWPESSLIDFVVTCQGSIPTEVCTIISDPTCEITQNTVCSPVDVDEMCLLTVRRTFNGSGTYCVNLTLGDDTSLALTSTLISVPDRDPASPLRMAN


Columns and labels:
[1] = molecular target: T1, mouse GPNMB endogenously expressed on …; test: FACS, B16F10 cells
Outline: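 Flow cytometry MFI after two-step staining on ice: anti-GPNMB antibody for 30 min, then APC-conjugated anti-human IgG (1 μg/ml) for 30 min. Buffer was PBS with 2% FBS and 2 mM EDTA; 100,000 cells per well.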

[2] = molecular target: T1, mouse GPNMB endogenously expressed on …; test: FACS on B16F10 mouse melanoma cells (endogenous mouse GPNMB); single antibody concentration (not given); APC anti-human IgG secondary; MFI as fold over background
Description: Recombinant anti-GPNMB antibodies of the present disclosure were examined for their ability to bind human and/or mouse GPNMB expressed on Freestyle293-huGPNMB+ or B16F10 cells, respectively. B16F10 cells are a murine melanoma cell line from a C57BL/6J mouse that endogenously express high levels of mouse GPNMB. The antibodies were also tested for their ability to bind to a human macrophage cell line (U937 cells) engineered to express human GPNMB. Cells were harvested, plated at 100,000 cells/well in a 96-well round bottom plate, and incubated in 100 μl FACS buffer (PBS containing 2% FBS, 2 mM EDTA) containing anti-GPNMB monoclonal antibodies of the present disclosure for 30 minutes on ice. Cells were then washed and incubated in 100 ul FACS buffer containing 1 μg/ml APC-conjugated anti-human IgG secondary antibody for 30 minutes in ice. Cells were washed twice in cold FACS buffer and acquired on a BD FACS Canto. Data analysis and calculation of MFI values was performed with FlowJo (TreeStar) software version 10.0.7. […]

[3] = molecular target: T2, soluble cynomolgus GPNMB (recombinant …); test: SPR Carterra, Ab immobilized
Outline: (§1)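 Analyte series of GPNMB extracellular domain (2.5, 7.4, 22, 67, 200, 600 nM) flowed in ascending order, no regeneration, over IgG1 antibodies EDC/NHS-immobilized on an HC200M array. HBS-EP+ plus 0.5 mg/ml BSA as running buffer, two blanks per series. Affinity estimated via high-throughput kinetic fitting.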

[4] = molecular target: T3, soluble human GPNMB (recombinant …); test: SPR Carterra, Ab immobilized
Outline: as §1

Row | MFI fold over background [1] [fold] | binding result [2] | Kd [3] [nM] | koff [3] [s⁻¹] | kon [3] [M⁻¹ s⁻¹] | Kd [4] [nM] | koff [4] [s⁻¹] | kon [4] [M⁻¹ s⁻¹] | Binder
1 | 1 | no binding | 32.8 | 0.0015 | 48000 | 36 | 0.0014 | 40000 | anti-GPNMB antibody GPN-08 (antibody, human IgG1, V domains shown, chimeric) VH: QVQLQQPGAELVKPGASVKLSCRASGYTFTSYWLHWVKQRPGQGLEWIGEINPSDGRTNYIEKVKTKATLTVDKSSSTAYMQLSSLTSEDSAVYYCARSGGNYAWFAYWGQGTLVTVSA VL: DIVMTQSHKFMSTSVGDRVSITCKASQDVSPSVAWYQQRPGQSPKLLIYSASYRYTGVPDRFTGSGSGTDFTFTISSVQAEDLAVYYCQQHYSIPLTFGAGTKLELK
2 | 1.1 | no binding | 38.7 | 0.0021 | 54000 | 29.6 | 0.0019 | 100000 | anti-GPNMB antibody GPN-03 (antibody, human IgG1, V domains shown, chimeric) VH: QVQLQQSGPELVKPGASVKLSCKASGYTFTNYYMYWVKQRPGQGLEWIGEINPRNGGTNFNEKFKSKATLTVDKSSSTAYMQLSSLTFEDSAVYYCTTGLAYWGQGTLVTVSA VL: DVVMTQTPLSLPVSLGDQASISCRSSQSLVHSDGNTYLHWYLQKPGQSPKLLIYKVSTRFSGVPDRFSGSGSGTDFTLKISRVEAEDLGVYFCSQSTHVPWTFGGGTKLEIK
3 | 1 | no binding | 97.9 | 0.0021 | 21000 | 73.9 | 0.0032 | 54000 | anti-GPNMB antibody GPN-06 (antibody, human IgG1, V domains shown, chimeric) VH: QVQLQQSGAELVKPGASVKLSCKASGYTFTNYYMYWVKQRPGQGLEWIGEINTRNGGTNFNEKFKSKATLTVDKSSSTAYMQLSSLTSEDSAVYYCTTGFAYWGQGTLVTVSA VL: DIQMTQSPASLSASVGETVTITCRASENIYSYLVWYQQNQGKSPQLLVYNAKTLAEGVPSRFSGSGSGTQFSLKINSLQPEDFGTYYCQHHYGTPFTFGSGTKLEIK
